Assay results published in patent publication US20060281899A1, “Mutants of biotin binding protein” (priority 2002, published 2006).

Legend:
[1] = IASyS reversibility of biotin binding of avidin and AVRs; details: biotin cuvette, after addition of free biotin (0.17 mg/ml)
Experimental: The reversibility of biotin binding was studied as follows: Avidin and the AVRs were allowed to bind to a biotin-coated cuvette. After measuring the initial binding (A) as described above, biotin-saturated (0.17 mg/ml) buffer was injected into the cuvette and the amount of proteins remaining bound was measured until no dissociation was seen, again as compared to the negative control cuvette (B). The measurement time was at least 20 minutes. The percent reversibility was calculated as follows: reversibility (%)=100*(A−B)/A. A−B is the amount of liberated proteins after biotin adding.

[2] = Differential scanning calorimetry of avidin and AVR4/5 forms; type: physicochemical
Experimental: The thermodynamics of the heat-induced unfolding of the proteins were studied using DSC. The transition midpoint of heat-induced denaturation (Tm) of the avidin and different AVR4/5 forms was studied using a Nano II differential scanning calorimeter (Calorimetric Sciences Corporation, Provo, Utah, USA). The reference cell was filled with buffer whereas the sample cell was filled with proteins dissolved in 50 mM sodium phosphate buffer, pH 7.0 containing 100 mM NaCl. Avidin and AVR4/5(C124S) were also analyzed in 50 mM Na-acetate pH 4.0 containing 100 mM NaCl. Furthermore, AVR4/5 was analyzed in the presence of 2-mercaptoethanol (0.4% v/v). The samples (1.6-9.6 μM) were analyzed both in the absence and presence of a three fold molar excess of biotin/subunit. All samples were degassed before being loaded into the DSC. The thermograms were recorded as a function of temperature; between 25 and 130° C. at a rate of 55.6° C./h (Gonzalez, M., Argarana, C. E. & Fidelio, G. D. (1999) Biomol. Eng. 16, 67-72; Nordlund, H. R., Laitinen, O. H., Uotila, S. T., Nyholm, T., Hytönen, V. P., Slotte, J. P. & Kulomaa, M. S. (2003) J. Biol. Chem. 278, 2479-2483). Data was analyzed using Microcal Origin 6.0 and Cpcalc 2.1 (Applied Thermodynamics, Hunt Valley, Md.). The change in heat capacity upon unfolding (ΔCp) was measured for avidin and AVR4/5(C124S) using DSC data from measurements in pH 4.0 and 7.0. ΔCp was then obtained from the slope of ΔH vs. Tm (Liu, Y. & Sturtevant, J. M. (1996) Biochemistry 35, 3059-3062).

Reversibility of biotin binding [1]: 2 ± 2%
B1: AVR4/5: Recombinant chicken avidin-related protein 4/5 (AVR4 and AVR5 identical in coding sequence) (protein, UniProt P56734 25-150, looked up)
Avidin-related protein 4/5: ARKCSLTGKWTNNLGSIMTIRAVNSRGEFTGTYLTAVADNPGNITLSPLLGIQHKRASQPTFGFTVHWNFSESTTVFTGQCFIDRNGKEVLKTMWLLRSSVNDISYDWKATRVGYNNFTRLCTVEE
DSC Tm(−biotin) ([2]; 50 mM sodium phosphate pH 7.0, 100 mM NaCl): 107.4 ± 0.3 °C | ΔTm ([2]; change in Tm upon addition of a three-fold molar excess of biotin): 17.3 °C | ΔH of unfolding ([2]; sample without biotin): 811 ± 140 kJ/mol | DSC Tm (+biotin) ([2]; three-fold molar excess of biotin, pH 7.0): 124.7 ± 0.3 °C
